Reference: the DeepSol protein solubility set

Assay: soluble on expression in E. coli; label from the status in PepcDB or PDB records

| Sequence | soluble on expression in E. coli |
| --- | --- |
| MTEEQFSSYHPPLPPTTEEDRFSWLRLLRSRRVGPTTFRRLMHEHGTAQNALAALPEVARAAGVEGYEICPPGVVEAELKAAKAAKARLLCLGDADYPSHLAGISDAPPLLWLLGDPALLRRPMIALVGARNASSLGTRMARALAQDLGTAGFVVVSGLARGIDTAAHLAALPSGTIAVMAGGVDTVYPAENTHLAADIAQHGLRLSEQPMRLTPQARHFPRRNRIISGLAQAVVVVEAAAKSGSLITARDALDQGREVLAVPGHPFDARAAGCNMLIRDGAHLVRNAEDVITALPALTAPQPQPDLCDLMQQPAPPAKRSLRETVALHSLILDRLGPSPVAEDQLIRDLAASPGEVAPVLVDLELEGRINRQAGGLLSRVN | not soluble |
| MTEFQLEKAATLKTIAIRAKKVGEMVDFYKKVMGFVLKSEENNLSIWGTREAGTQLLILEETRKAEDFHNEEKQMAYFSIKVPTEKEFLQIAQRVLEQDYPIDESFQIGTRQSMFITDLEGNQFEIFHDEATANSTSEKQPIVLKDLISEDLEPHQGLAAGSYLAHVQLKTNNQKEIKAYYEEVLGLKRNEKDQFVLEDGKATIGFQKPETSEVDQLPDPHLGLDFFTIKLSDQEHILAMEQQLTAKNQEFFIDQKKAIVTVFDPIGLEWWFVLK | not soluble |
| MTEKALDSKQTGYCLSTDHYRIRRALPSDYDSILALWEDARHTMLASDNPQWQGAYPGETEAQEDIARGEAFLLDIAGTPLGVMAVNDQMPAEYGSLPWQTEGKAYTIHRLGVHSSLLRKGYAAAMLFSAETIAREQGGTCIRIDTYSPNTAAQSLFRRLGYRQVCSFHMKQKPLPYIAFEKSLLKQLGSG | not soluble |
| MTELARLKFYATQPHPCSYLPEEQATTLFLDPSQPMDTQLYASLSEVGFRRSGDHLYRPHCQHCTACIAARIPVADFSPNRQQRRILKRNAELQVIRKRPSFNEEYYDLYRRYIEQRHADGDMYPPSRDQFATFLVRDLPFCCFFEFRLHGRLLAIAVTDVLPNGLSAVYTFYDPDEEQRSLGRYAILWQIAETERLGLQAVYLGYWIKNCRKMNYKTQYRPIELFVNQRWVALTLEHHHHHH | not soluble |
| MTELKLIHIFTDGSCLGNPGPGGYGIVMKYKGHTKEMSGGFSLTTNNRMELLAPIVALEALKEPCKIILTSDSQYVRQGIMTWIHGWKKNGWMTSNGTPVKNVDLWKRLDKAAQLHQIDWRWVKGHAGHAENERCHQLARAAAEANPTQIDTGYQAES | soluble |
| MTELRVYLLIEALQPQFAACLSSPTRARGYPAFAGQSSLIIEVSPALAIHRVTDLALKSAPAMEPGILYTERQFGLLELHADSLEKLNAAGQAILDGMGAKPEDQLKPQILYHDIIENLSDQHAIILNRSREASILVPGVALLIYEMAPALFACVAANEAERAVPRAVINDVQMMGATGRVFMSGSLAEMRLARETITAKLESIPGRQ | not soluble |
| MTEMELKLIKIDTSHYFEKKPGLGERVDYAGRCFYNKFQRVNAMLTSSLIQKHLKREIEIAHNLILRNDKVENIVFDYNGRNPERFYHKAQLLLREEGFMNFTAYNTKTPGHLHLYVHKGHTELGEGERLVKTLSMKLAQGLPKEWKVFPSNEWPKEFNILALPYEVFAKERGSSWAKHL | soluble |
| MTENAQDKARQAVETVVKSPELVEQILSDEYVQIMIARCFHSGPLPPPSDLAQYNDIISNGADRIMAMAEKEQAVRHETIRQDQTFNRRGQ | not soluble |
| MTENVVCTGAVNAVKEVWEKRIKKLNEDLKREKEFQHKLVRIWEERVSLTKLREKVTREDGRVILKIEKEEWKTLPSSLLKLNQLQEWQLHRTGLLKIPEFIGRFQNLIVLDLSRNTISEIPPGIGLLTRLQELILSYNKIKTVPKELSNCASLEKLELAVNRDICDLPQELSNLLKLTHLDLSMNDFTTIPLAVLNMPALEWLDMGSNKLEQLPDTIERMQNLHTLWLQRNEITCLPQTISNMKNLGTLVLSNNKLQDIPVCMEEMANLRFVNFRDNPLKLKVSLPPSEGTDEEEERELFGLQFMHTYIQESRRRADHQVNGSTTLPISINTDG | soluble |
| MTEPDVAGAPASKPEPASTGAASAAQLSGYSRVLLKLGGEMFGGGQVGLDPDVVAQVARQIADVVRGGVQIAVVIGGGNFFRGAQLQQLGMERTRSDYMGMLGTVMNSLALQDFLEKEGIVTRVQTAITMGQVAEPYLPLRAVRHLEKGRVVIFGAGMGLPYFSTDTTAAQRALEIGADVVLMAKAVDGVFAEDPRVNPEAELLTAVSHREVLDRGLRVADATAFSLCMDNGMPILVFNLLTDGNIARAVRGEKIGTLVTT | soluble |
| MTEPWIAFPPEVHSAMLNYGAGVGPMLISATQNGELSAQYAEAASEVEELLGVVASEGWQGQAAEAFVAAYMPFLAWLIQASADCVEMAAQQHVVIEAYTAAVELMPTQVELAANQIKLAVLVATNFFGINTIPIAINEAEYVEMWVRAATTMATYSTVSRSALSAMPHTSPPPLILKSDELLPDTGEDSDEDGHNHGGHSHGGHARMIDNFFAEILRGVSAGRIVWDPVNGTLNGLDYDDYVYPGHAIWWLARGLEFFQDGEQFGELLFTNPTGAFQFLLYVVVVDLPTHIAQIATWLGQYPQLLSAALTGVIAHLGAITGLAGLSGLSAIPSAAIPAVVPELTPVAAAPPMLAVAGVGPAVAAPGMLPASAPAPAAAAGATAAGPTPPATGFGGFPPYLVGGGGPGIGFGSGQSAHAKAAASDSAAAESAAQASARAQARAARRGRSAAKARGHRDEFVTMDMGFDAAAPAPEHQPGARASDCGAGPIGFAGTVRKEAVVKAAGLTTLAGDDFGGGPTMPMMPGTWTHDQGVFDEHR | not soluble |
| MTESVFAVVVTHRRPDELAKSLDVLTAQTRLPDHLIVVDNDGCGDSPVRELVAGQPIATTYLGSRRNLGGAGGFALGMLHALAQGADWVWLADDDGHAQDARVLATLLACAEKYSLAEVSPMVCNIDDPTRLAFPLRRGLVWRRRASELRTEAGQELLPGIASLFNGALFRASTLAAIGVPDLRLFIRGDEVEMHRRLIRSGLPFGTCLDAAYLHPCGSDEFKPILCGRMHAQYPDDPGKRFFTYRNRGYVLSQPGLRKLLAQEWLRFGWFFLVTRRDPKGLWEWIRLRRLGRREKFGKPGGSA | soluble |
| MTFGRLWEKFLASAYYSDLSPRTQKDYLQHQKKLLAVFGKVPADSIKPEHIRRYMDKRGEQSKTQANHEKSSMSRVYSWGYERGYVKANPCAGVSKFKAKNRERYVTDKEYQAVLSVAPLPVFIAMEIAYLCAARVSDVLSLKWEQIGNDGIFIQQGKTGKKQIKAWSPRLQAAIEKAKQLPTSAYVISNQYGNRYMYKGFNEMWVEARNRAGKISGILTDFTFHDLKAKGISDYEGSSRDKQLFSGHKTEGQVLIYDRKVKVSPTLDVPLPENIPRKYSK | not soluble |
| MTFNHKKMEPKWQQYWSEHNTFKTTEDKNKENFYALDMFPYPSGAGLHVGHPEGYTATDILSRMKRMQGKNVLHPIGWDAFGLPAEQYAIDTGNDPEEFTALNIANFTRQIKSLGFSYDWDREINTTDPEYYKWTQWIFEKLYENGLAYEAEIAVNWCPALGTVLANEEVIDGKSERGGFPVFRKPMRQWMLKITAYADRLLDDLDLVDWPENIKDMQRNWIGRSEGAEVTFKIKDSDETFNVFTTRPDTLFGATYTVFAPEHELIEKITTPEQKEAVEAYKKQVELKSELERTDLAKDKTGVFTGAYAINPINGEEVPIWIADYVLIQYGTGAIMAVPAHDERDFEFAQQFGLNIRPVLEGGDVTKEAFTGDGPHINSDFLNGLAKAEAITAAIDWLEKEGIGSRKITYRLRDWLFSRQRYWGEPIPVIHWEDGETTLVPEEELPLLLPKATEIKPSGTGESPLANLHDWVNVTDENGRKGRRETNTMPQWAGSSWYFLRYIDPKNSEAIADKEKLAEWLPVDVYIGGAEHAVLHLLYARFWHKFLYDIGVVPTKEPFQKLFNQGMILGENNEKMSKSRGNVVNPDEVVEKYGADTLRLYEMFMGPLEASIAWNENGLEGARKFLDRIWRLLVTEEGTLAEKVTTDANANLEKAYHHMVKTVTNHYENLRFNTGISQLMIFINEAYKQDTIPKQYVEGFVQLLSPIAPHLAEELWEILGHTETISYVAWPTYDETKLVEDEVEIVLQVNGKVKSKITVAKSLGKEELEKIAQEDNKMKENLEGKTIRKVIVVPGKLVNIVAN | not soluble |
| MTFQASGTTGITTLTVTEECRVQVGNVTATLARSKLKDDTAIGVIGVTALGCNGLQAALQADPDNYDATNLYMTSRNHDKLNVKLKATDGSSWTYGNGVFYKTEGGNWGGHVGISVDGNQTDKPTGEYTLNLTGGYWTNDNKQTFQASGTTGITTLTLEHHHHHH | soluble |
| MTFTASSSSCAITESPVVVALDYHERDKALAFVDKIDPRDCRLKVGKEMFTLFGPQLVRDLQQRGFDVFLDLKFHDIPNTTARAVAAAADLGVWMVNVHASGGARMMAAARDALAPFSKDAPLLIAVTVLTSMETSDLHDLGVTLSPAEHAERLARLTQQCGLDGVVCSAQEAVRFKQAFGAAFKLVTPGIRPAGSEAGDQRRIMTPEQALSAGVDYMVIGRPVTQSVDPAQTLKDINASLKREA | not soluble |
| MTFTGLPPEDVPALMTGAVIPHPSVAGRADAYLPSPCIQNHAANLAFLPDGTLSCVWFGGTMEGMRDISIYMSRLPPGSGRWSEPEKMSDDPEKSEQNPLIFNAPDGKTWLLYTSQTSGNQDGSIVKCRISDDGGKTFGPVQILCDSPGTFVRQQIVVNDRGDWLLPIFRCVGLEGQRWSGDADTAAVLISRDGGASWQMRDIPDSIGAVHMNILPLGGCEMIAFYRNRFAETILSSRSADGGETWSPPEPTELPNNNSSIQATVLDNGGIAMVYNHSNATMSDARRQSLYDEIEGDECGENAAVVADAGRKAVWGVPRAPLSLAISRDGGRTFPHRIDLDTGDGFCLSNNSKDSLNREFSYPSVIEGSDGTLHVAYTYYRRALEHHHHHH | not soluble |
| MTGHWSYCDDDECGPNRWPTGQHQSPINIDLGEVERKDTHDGIKFVNYDHPIQGDIVNNGHSVQMTPELRSEHPEIYGGGLDQVYRLVQYHFHWGENDNEGSEHTLGGLRYPAELHLVHQGVEDPGKLAVVGVFLQLGKEGKALSNEERVLGKLCNPETVTRVENVRLSEKLPANKRSFWRYEGSLTTPPCSEIVTWTIFTEPVTVTHDQLELFRQVQDIEKRPIKKNYRPTQNLNDRKIVHIVAN | not soluble |
| MTGILDSVNQRTQLVGQNRLELLTFRLMGRQRYGINVFKVKEVLQCPKLTSMPNLHPLVKGIAHIRGHTVSVIDLSLAIGGRPTTDIDKCFVVIAEFNRTIQAFLVSSVERIINMHWEAILPPPDGAGKAHYLTAVTNIDNELVEILDVEKILAEIAPVDETMDSTIGEEIAQAEQEKPIVR | not soluble |
| MTGQPSTPVRPGSVVRTVRRHRGGRSATVQDMVAAEMPVAFNYNGVPFAVMMATPEDLEDFALGFSLSEGIVDHPQDLRVVAVDTFLEGASLQIEIPPERAAALDQRRRNLDGRSGCGVCGNESIEAVLRVPPVLQSALRIDVDALARALDALHARQPIAAQTGAVHAAGWADAQGMVQLVREDVGRHNALDKLIGALARARVDATQGFAVVTSRASYEMAMKAAQARIPLLAAISAPTALAISLADSAGLTLIGFARDHDCVVYSHPQRLDLGVAVGEPALEHHHHHH | not soluble |
| MTGSQKLILTGRPFLHHQGIINQVSTVTKVIHHELEVAASADDIWTVYSWPGLAKHLPDLLPGAFEKLEIIGDGGVGTILDMTFVPGEFPHEYKEKFILVDNEHRLKKVQMIEGGYLDLGVTYYMDTIHVVPTGKDSCVIKSSTEYHVKPEFVKIVEPLITTGPLAAMADAISKLVLEHKSKSNSDEIEAAIITVHHHHHH | soluble |
